Source: publication doi:10.1101/2023.02.03.526950

Experiments:
[1] = target: PXN/paxillin, exogenously expressed in HEK293T cells (human) (UniProt P49023); assay: cross-linking
[2] = target: recombinant PXN WT (human) (UniProt P49023); assay: SEC-MALS

“PXN/paxillin, exogenously expressed in HEK293T cells (from UniProt P49023-2 1-557) (natural protein)” was tested, and the stoichiometry N [1] was 2.
“recombinant PXN WT (from UniProt P49023-2 1-557) (natural protein)” was tested, and the stoichiometry N [2] was 2.
